In PMC10014863, “Structural analysis of the housecleaning nucleoside triphosphate pyrophosphohydrolase MazG from Mycobacterium tuberculosis” (Frontiers in Microbiology, 2023):
Where a chain is given by its changes, count along the chain named. In names and notes the source's numbering stands.

Molecular target: the molecule itself
Test: SEC

B1: Mtb-MazG (1–185) (domain or fragment)
chain: MIVVLVDPRRPTLVPVEAIEFLRGEVQYTEEMPVAVPWSLPAARSAHAGNDAPVLLSSDPNHPAVITRLAAGARLISAPDSQRGERLVDAVAMMDKLRTAGPWESEQTHDSLRRYLLEETYELLDAVRSGSVDQLREELGDLLLQVLFHARIAEDASQSPFTIDDVADTLMRKLGNRAPGVLAGE
- stoichiometry N: 2

B2: Mtb-MazG E119A (enzyme)
chain: MIVVLVDPRRPTLVPVEAIEFLRGEVQYTEEMPVAVPWSLPAARSAHAGNDAPVLLSSDPNHPAVITRLAAGARLISAPDSQRGERLVDAVAMMDKLRTAGPWESEQTHDSLRRYLLEATYELLDAVRSGSVDQLREELGDLLLQVLFHARIAEDASQSPFTIDDVADTLMRKLGNRAPGVLAGESISLEDQLAQWEAAKASEKARKSVADDVHTGQPALALAQKVIQRAQKAGLPAHLIPDEITSVSVSADVDAENTLRTAVLDFIDRLRCAERAIAVARRGSNVAEQLDVTPLGVITEQEWLAHWPTAVNDSRGGSKKRKGMR
- stoichiometry N: 2

B3: Mtb-MazG E122A (enzyme)
chain: B2 chain with A119E, E122A
- stoichiometry N: 2

B4: Mtb-MazG E138A (enzyme)
chain: B2 chain with A119E, E138A
- stoichiometry N: 2

B5: Mtb-MazG D141A (enzyme)
chain: B2 chain with A119E, D141A
- stoichiometry N: 2
